This note sets out measurements from article PMC10580935.

Common to all, as to assay: EMSA
Holding throughout (settings): 20 mM Tris-HCl pH 8.0, 1 mM DTT, 50 mM KCl, 5 mM MgCl2, 0.05 mg/mL BSA, 10% glycerol
A general note: A gel shift assay detects complexes by their altered migration in electrophoresis.

For data set [1], the target named is T1, IdeR (Mycobacterium bovis BCG) (UniProt P9WMH1).
T1 sequence: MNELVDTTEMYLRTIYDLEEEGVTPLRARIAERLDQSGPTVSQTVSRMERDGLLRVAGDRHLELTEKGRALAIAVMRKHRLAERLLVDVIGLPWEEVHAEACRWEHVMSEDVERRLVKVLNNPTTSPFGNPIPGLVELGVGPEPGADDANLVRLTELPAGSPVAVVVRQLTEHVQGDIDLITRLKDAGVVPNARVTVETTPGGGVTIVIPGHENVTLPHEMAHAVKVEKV

Data set [2] addresses T2, IdeR;Zur (Mycobacterium bovis BCG;Mycobacterium bovis BCG) (UniProt P9WMH1+P9WN85).
T2 sequence 1: T1 sequence
T2 sequence 2: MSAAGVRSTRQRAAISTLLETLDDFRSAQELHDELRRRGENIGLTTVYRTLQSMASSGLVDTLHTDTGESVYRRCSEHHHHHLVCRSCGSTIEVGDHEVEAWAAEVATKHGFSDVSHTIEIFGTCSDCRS

Data set [3] addresses T3, Zur (Mycobacterium bovis BCG) (UniProt P9WN85).
T3 sequence: T2 sequence 2

For the sequence “ACGTCAGCGTCTACCTTGCCATTTACCCGAGACGCGACGGGGGAAGCGGCCACCATGCCAATGTCATCACGCTCCACGCCTCCGCTGTCTCCTTCACCTACGCCCGCCATCGGCCGATCCGCCTGAACTTTGCCCCGAAGTTAGCATTGCATAAGCTAACTGTCGAGGCGACCGCGACCAATCGACTCGGCCCTGCGGCCAAGCTTTTAGGCACGGCTGGCAAGATCATGACCGATACTCCATTTCGTTGGTAGCCCGATATGCAGAGTGTAG (double strand) [esx-3p2]”, the values for the binding result in data set [1], in data set [2] and in data set [3] were “binds”, “binds” and “no binding”, respectively.
